Assay results as given in patent publication US20050019751A1.

Target: human SR-BI with 12 vector-derived amino acids added to the carboxyl terminal (pcDNA3-SR-BI construct of Example 3) (human) (UniProt Q8WTV0)
Experiment: FACS dot plot, BHK-21 cells transiently transfected with pcDNA3-SR-BI

UniProt Q8WTV0, sequence (Q8WTV0 other isoform, or with tags, fused parts or gaps limits assumed): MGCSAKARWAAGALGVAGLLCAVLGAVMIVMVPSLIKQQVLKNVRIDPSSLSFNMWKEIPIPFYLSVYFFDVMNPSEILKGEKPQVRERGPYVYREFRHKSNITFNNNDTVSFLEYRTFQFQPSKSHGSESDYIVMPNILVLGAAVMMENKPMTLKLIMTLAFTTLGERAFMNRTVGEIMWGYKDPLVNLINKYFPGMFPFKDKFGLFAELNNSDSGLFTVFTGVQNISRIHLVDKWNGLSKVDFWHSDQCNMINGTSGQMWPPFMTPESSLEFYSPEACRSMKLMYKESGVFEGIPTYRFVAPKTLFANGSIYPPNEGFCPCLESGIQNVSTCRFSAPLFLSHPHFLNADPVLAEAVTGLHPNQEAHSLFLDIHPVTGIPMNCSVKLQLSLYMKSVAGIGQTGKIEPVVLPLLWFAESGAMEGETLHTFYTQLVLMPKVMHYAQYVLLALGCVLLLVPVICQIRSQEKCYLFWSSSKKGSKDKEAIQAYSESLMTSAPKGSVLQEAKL

Question: “HCV E2 recombinant protein, genotype 1a (strain H), amino acids 384-661 of the HCV polyprotein with C-terminal 6 His tag (from UniProt P27958 384-661) (ligand)” was tested. Which percent of transfected cells that bind E2 did it give?
Answer: 10%
